According to patent publication US20090203602A1:

Experiments:
[1] = target: BRAF V599E V-raf murine sarcoma viral oncogene homolog B1 V599E mutation, P15056; assay: cell-based or functional assay
[2] = target: PRKCB1 (PKC beta I) Protein kinase C, beta 1, P05771; assay: cell-based or functional assay

SGRPPMIVWFNRPFLIAVSHTHGQTILFMAKVINPVGA [D3 peptide] gave a % Inhibition mean [1] of 99.8% and a % Inhibition mean [2] of 88%.
